Test results taken from patent US20200399394A1.

Tests used:
[1] = target: human CD39 (ectonucleoside triphosphate diphosphohydrolase 1) (UniProt P49961); assay: ForteBio (BLI); IgG, monovalent
[2] = target: human CD39 (ectonucleoside triphosphate diphosphohydrolase 1) (UniProt P49961); assay: MSD equilibrium; Fab

Kd [1]: 2.94 nM
Kd [2]: 0.053 nM
Substance: SRF399-C
